B1: PI4K2A (parent)
chain: FVKDPQGRIIAVFKPKNEEPYGHL
B2: CCDC6 (parent)
chain: TLFKKIQALQKEKETLAVNYEKEE

Variants of: B1
Assay: protein stability index of a GFP-peptide fusion (GPS, HEK-293T) (PSI 1-6); higher = more stable
Settings: c terminus: a fixed tail appended
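Further: lentivirally expressed fusions sorted by FACS into six bins by GFP to DsRed ratio, PSI derived from sequencing read proportions per bin multiplied by bin number.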

Protein stability index, by site and new letter:
F1: L 2.25; I 2.18; H 2.44; D 3.69; P 4.09; T 3.36; V 2.84; C 2.77; K 2.8; A 2.63; N 3.21; G 3.09; W 1.89; M 2.76; E 3.71; Q 3.69; S 2.76
G7: M 3.42; A 2.29; E 2.98; C 2.03; N 2.23; H 2.79; F 2.74; I 3; K 3.39; D 1.69; P 1.81
K3: S 2.67; I 2.03; W 2.19; Y 2.01; L 1.85; R 3.49; G 2.56; E 1.42; H 1.68; C 2.7; A 1.57; P 1.91; M 1.47; Q 1.32
Q6: V 2.53; A 1.71; T 2.32; K 1.64; Y 1.6; W 1.7; L 2.22; E 1.63; P 2.21; C 1.54; F 1.62; G 1.92; H 1.1; D 2.4; M 1.57; I 1.45; N 1.84; R 1.49; S 1.6
V2: G 2.09; A 2.07; R 2.88; K 2.04; T 1.94; Q 1.99; S 2.44; D 3.36; P 2.13; M 2.42; C 1.33; L 2.45; F 2.17; Y 1.95; E 3.33; I 2.01; N 3.04; W 1.71
P5: W 2.7; R 2.16; G 1.5; Y 2.28; C 1.66; H 2.51; M 1.3; N 2.29; L 1.39; D 2.03; Q 2.83; K 2.07; E 2.04; T 1.67; A 1.83
D4: L 1.11; C 2.08; P 1.31; F 2.21; Y 2.06; G 1; Q 2.74; A 2.86; H 1.12; S 1.7; E 1.49; T 1.48; K 2.28

Variants of: B2
Assay: as above
Settings: c terminus: a fixed tail appended

Protein stability index of substitutions, site by site:
Q7: Y 2.55; P 4.7; D 4.38; V 2.7; W 1.99; I 2.6; M 2.73; C 2.73
K22: G 3.39; E 3.72; D 3.88; Y 2.64; A 3.27; R 2.94; C 3.46; V 2.94; M 3.08; N 3.12; I 2.74; S 3.29
L16: A 3.32; V 3.23; P 3.44; I 2.69; Y 3.58; K 2.83; F 2.81; C 3.05; D 3.88; G 4.09; Q 4.1; R 3.02; E 4.07; W 1.86; M 3.24
E21: Q 3.1; N 2.92; F 1.62; M 2.11; T 2.84; W 1.92; S 3.06; L 2.28; K 2.58; Y 1.78; D 3.2; R 2.36
E23: T 3.02; R 2.29; I 2.69; K 2.68; Q 2.63; H 2.93; N 3.14; W 1.78
K5: L 2.27; E 4.27; H 2.88; D 4.85; A 2.43; R 2.75; S 3.47; P 4.74; F 1.61; W 3.67; T 2.95; V 1.76; M 2.22; G 4.19; C 2.52; Q 3.36; I 1.79; Y 2.15
E24: K 2.41; D 3.45; M 2.34; V 2.25; A 2.79; L 2.55; I 2.19; G 2.68
E12: F 1.85; T 2.62; C 2.1; V 2.52; S 2.63; Q 2.64; D 3.37
T15: D 3.89; E 3.77; N 3.23; C 2.84
F3: G 5.23; E 5.42; W 2.26; T 5.1; R 4.38; P 5.44; H 4.9; A 4.68; N 4.59; K 4.78
Q10: L 2.45; M 2.42; G 3.89; T 3.79; D 4.41; W 2.65; F 2.2; K 3.08
E14: T 2.55; R 2.6; N 3.15; W 2.03; G 3.1; H 2.58; L 1.97
K11: L 3.05; Y 2.66; N 3.55; F 2.94; T 2.89; I 2.85; S 3.36
I6: Q 4.28; D 5.34; A 4.59; T 4.75; P 4.78; C 4.44; W 3.4; K 4.92
V18: P 3.16; D 3.43; S 3.31; E 3.2; M 2.81; K 3.43; W 2.03; C 2.95; G 3.15; Q 3.21
L2: Q 4.91; F 4.25; H 4.96; V 3.82; R 5.13; W 3.68
N19: C 3.14; F 2.18; P 3.24; D 3.15; W 2.11; H 3.08; I 2.7; R 2.57; Q 3.08; E 3.64; A 3.11
L9: N 4.55; R 4.25; K 4.35; W 3.5; I 3.57
A8: P 4.25; R 3.38; S 3.47; C 3.15; E 4.05; H 3.25; F 3.54; L 3.4; Y 2.75; V 4.34
T1: S 2.92; F 2.64; H 3.48; P 3.71; D 4.01; Q 2.84; W 1.88; I 2.69; C 3.34; N 4.12; R 3.04
K4: C 2.73; D 4.37; F 3.44; Q 3.56; L 3.05; R 3.35; H 3.88; I 2.76; N 3.68; G 3.75; T 4.27; E 3.33
Y20: D 4.09; W 3.26; H 3.62; V 3.47; F 3.06; L 3.45; P 3.21; M 2.45; G 3.71
K13: V 1.84; M 2.65; A 2.58; L 1.93; H 2.81; D 3.96; Y 2.09; P 3.51; E 3.78; T 3.4; I 2.2; N 3.17
A17: C 3.39; Q 3.04; V 2.89; K 3.41; H 2.95; D 3.74; G 3.1; I 2.85; P 2.84

Source: the supplement of paper PMC10567573
